Experiments:
[1] = target: T1, extracellular domain of human CD73 (residues 27-549) deglycosylated with PNGase F (human, UniProt P21589, deglycosylated with PNGase F; a glycan left at Asn-311); assay: crystal structure; TB19 Fab::CD73 complex; crystals in 0.1 M sodium potassium phosphate pH 6.2, 35% 5-methyl-2,4-pentanediol, 2.5% pentaerythritol ethoxylate, 4°C; settings: both partners purified
T1 construct: CD73 (ecto-5'-nucleotidase, NT5E), human, extracellular domain, residues 27-549; Construct used for SEC-MALS and for the two crystal structures; also called ecto-5'-nucleotidase; NT5E; source: ExpiHEK293, purified (nickel column, PNGase F, size-exclusion chromatography)

[2] = target: T2, soluble CD73 dimer (human, UniProt P21589); assay: BLI; pre-mix epitope binning: monovalent antibodies on protein A biosensors, 100 nM CD73 alone or with a 4-fold molar excess of Fab; PBS pH 7.4, 0.1% BSA, 0.01% Tween 20, 30°C; settings: both partners purified
T2 construct: CD73 (ecto-5'-nucleotidase, NT5E), human, soluble form; Also used here as the target of the functional rows, where CD73 stood whole on COR-L23 cells; also called soluble human CD73

[3] = target: TB38/AS30; assay: SPR; Biacore T200, 25°C, HBS-EP+ pH 7.4; antibody captured at low density (5-30 RU) on Protein A chips, CD73 at 3, 12 or 32 nM in the flow (5 min association, 30 min dissociation); 1:1 Langmuir binding model
[4] = target: TB19/TB38; assay: as above
[5] = target: TB19/AS30; assay: as above
[6] = target: the molecule itself; assay: crystal structure; TB19 Fab::CD73 complex; crystals in 0.1 M sodium potassium phosphate pH 6.2, 35% 5-methyl-2,4-pentanediol, 2.5% pentaerythritol ethoxylate, 4°C
[7] = target: T1, extracellular domain of human CD73 …; assay: crystal structure; TB38 Fab::CD73 complex; crystals in 1.6 M sodium phosphate monobasic, 0.4 M potassium phosphate dibasic, 0.1 M sodium phosphate citrate pH 5.3, 4°C; settings: both partners purified

B1: TB19 Fab (Fab, V domains shown)
VH: QEQLQESGPGLVKPSETLSLTCTVSGGSIRNNYYNWIRQPAGKGLEWIGRIYISGTTNSNPSLKSRVTMSIDTSKNQFSLKLSSVTAADTAIYYCAREHYVSGTSLDNWGQGTLVTVSS
VL: EIVMTQSPTTLSLSPGERATLSCRASQSVNTNYFSWYQQKPGLTPRLLIYGTSTRATGIPARFSGSGSGTDFTLTISSLQPEDFGIYYCQQDYNLPYTFGQGTYLEIK
notes: deposited with the structure TB19::CD73, PDB 6VC9 (only the Fv could be built); The methods speak of a 'TB19.3 Fv model' as search model; also called TB19 Fv
- binding result [1]: binds
- binding result [2]: binds

B2: soluble CD73 dimer (enzyme)
chain: WELTILHTNDVHSRLEQTSEDSSKCVNASRCMGGVARLFTKVQQIRRAEPNVLLLDAGDQYQGTIWFTVYKGAEVAHFMNALRYDAMALGNHEFDNGVEGLIEPLLKEAKFPILSANIKAKGPLASQISGLYLPYKVLPVGDEVVGIVGYTSKETPFLSNPGTNLVFEDEITALQPEVDKLKTLNVNKIIALGHSGFEMDKLIAQKVRGVDVVVGGHSNTFLYTGNPPSKEVPAGKYPFIVTSDDGRKVPVVQAYAFGKYLGYLKIEFDERGNVISSHGNPILLNSSIPEDPSIKADINKWRIKLDNYSTQELGKTIVYLDGSSQSCRFRECNMGNLICDAMINNNLRHTDEMFWNHVSMCILNGGGIRSPIDERNNGTITWENLAAVLPFGGTFDLVQLKGSTLKKAFEHSVHRYGQSTGEFLQVGGIHVVYDLSRKPGDRVVKLDVLCTKCRVPSYDPLKMDEVYKVILPNFLANGGDGFQMIKDELLRHDSGDQDINVVSTYISKMKVIYPAVEGRIKFS
- Kd [3]: 0.814 nM
- koff [3]: 0.000187 s⁻¹
- kon [3]: 237000 M⁻¹ s⁻¹
- Kd [4]: 0.555 nM
- koff [4]: 0.000102 s⁻¹
- kon [4]: 184000 M⁻¹ s⁻¹
- Kd [5]: 4.18 nM
- koff [5]: 0.00069 s⁻¹
- kon [5]: 165000 M⁻¹ s⁻¹

B3: extracellular domain of human CD73 (residues 27-549) deglycosylated with PNGase F (enzyme, UniProt P21589 27-549, looked up)
chain: WELTILHTNDVHSRLEQTSEDSSKCVNASRCMGGVARLFTKVQQIRRAEPNVLLLDAGDQYQGTIWFTVYKGAEVAHFMNALRYDAMALGNHEFDNGVEGLIEPLLKEAKFPILSANIKAKGPLASQISGLYLPYKVLPVGDEVVGIVGYTSKETPFLSNPGTNLVFEDEITALQPEVDKLKTLNVNKIIALGHSGFEMDKLIAQKVRGVDVVVGGHSNTFLYTGNPPSKEVPAGKYPFIVTSDDGRKVPVVQAYAFGKYLGYLKIEFDERGNVISSHGNPILLNSSIPEDPSIKADINKWRIKLDNYSTQELGKTIVYLDGSSQSCRFRECNMGNLICDAMINNNLRHTDEMFWNHVSMCILNGGGIRSPIDERNNGTITWENLAAVLPFGGTFDLVQLKGSTLKKAFEHSVHRYGQSTGEFLQVGGIHVVYDLSRKPGDRVVKLDVLCTKCRVPSYDPLKMDEVYKVILPNFLANGGDGFQMIKDELLRHDSGDQDINVVSTYISKMKVIYPAVEGRIKFS
modifications: deglycosylated with PNGase F; a glycan left at Asn-311
notes: CD73 (ecto-5'-nucleotidase, NT5E), human, extracellular domain, residues 27-549; Construct used for SEC-MALS and for the two crystal structures; also called ecto-5'-nucleotidase; NT5E; source: ExpiHEK293, purified (nickel column, PNGase F, size-exclusion chromatography)
- stoichiometry N [6]: 2

B4: TB38 Fab (Fab, V domains shown)
VH: QVQLVESGGGVVQPGRSLRLSCAASGFTFSSYGMHWVRQAPGKGLEWVAVFWYDGSNKYYADSVKGRFTISRDNSKNTLYLQMNSLSAEDTAVYYCARAPNWDDAFDIWGQGTMVTVSS
VL: QTVVTQEPSFSVSPGGTVTLTCGLSSGSVSTSYYPNWYQQTPGQAPRTLIYSTNTRSSGVPDRFSGSILGNKAALTITGAQADDESDYYCVLFMGSGIWVFGGGTKLTVL
notes: deposited with the structure TB38::CD73, PDB 6VCA (full Fab built on the open CD73 dimer); also called TB38 Fv
- binding result [7]: binds

From publication PMC7939394, “A highly potent CD73 biparatopic antibody blocks organization of the enzyme active site through dual mechanisms” (The Journal of Biological Chemistry, 2020)
